Sequences and labels used below:
B1: Hairpin Ribozyme (parent)
chain: GUCCUCUUUCACGUGCGCGUGAAAGAGAGAAGUGAACCAGAGAAACACACGUUGUGGUAUAUUACCUGGUA

Variants of B1 are the subject of the data set. Nature of the data set: self-cleavage, relative activity (ratio to wild type); higher = more cleavage; co-transcriptional.
As for U14A A71U, the self-cleavage was 0.645.

For the variant U7G U67C, the self-cleavage was 0.217.

Consider U7G U67A, for which the self-cleavage was found to be 0.238.

For the variant U62C C66U, the self-cleavage came out at 0.189.

Take G15C A23U: the self-cleavage turned out to be 1.02.

For the variant C12U C46U, the self-cleavage was 0.174.

U62C C65U: the self-cleavage is 0.162.

U14A U62G: the self-cleavage worked out at 0.125.

For the variant U5C C12U, the self-cleavage worked out at 0.772.

As to G13A A61U, the self-cleavage was found to be 0.136.

As for U53G C66G, the self-cleavage worked out at 0.152.

As for C4U C18A, the self-cleavage was 0.4.

C4U G17A: the self-cleavage came out at 0.263.

Take C3G G32C: the self-cleavage worked out at 0.0586.

Consider C18U U52A, for which the self-cleavage amounted to 1.09.

Turning to U55G A61G, the self-cleavage amounted to 0.0963.

As for U8A U62G, the self-cleavage turned out to be 0.123.

For the variant C12U U55A, the self-cleavage was determined as 0.191.

For the variant A22U A43C, the self-cleavage is 0.178.

Take G29A G42A: the self-cleavage was 0.139.

For the variant U2G C50U, the self-cleavage stood at 0.157.

Regarding U7G G15U, the self-cleavage was 0.955.

In the case of G1A A41C, the self-cleavage came out at 0.134.

Consider C16U U70C, for which the self-cleavage amounted to 0.949.

Regarding G1A A23C, the self-cleavage amounted to 0.221.

Take U60A G68A: the self-cleavage turned out to be 0.298.

Turning to G27A U53A, the self-cleavage came out at 0.371.

Take G15C U58G: the self-cleavage came to 0.493.

In the case of G54A A64G, the self-cleavage came out at 0.403.

In the case of U9C A39G, the self-cleavage came to 0.283.

On to U58A C66U, for which the self-cleavage was found to be 0.335.

For the variant U20C C38A, the self-cleavage worked out at 0.152.

With G1U G13A, the self-cleavage stood at 0.0563.

Turning to U63C C66A, the self-cleavage turned out to be 0.23.

As to G15A U58G, the self-cleavage turned out to be 0.501.

For G15A U58A, the self-cleavage was 0.533.

For A22G C48U, the self-cleavage amounted to 0.149.

As to C46G U67C, the self-cleavage stood at 0.173.

In the case of U5A C66U, the self-cleavage worked out at 0.153.

Turning to U33C A35U, the self-cleavage turned out to be 0.162.

Take A26U A30C: the self-cleavage is 0.205.

For the variant C18U G56U, the self-cleavage came out at 0.115.

Turning to U63A A71C, the self-cleavage came to 0.287.

With A44C A61U, the self-cleavage turned out to be 0.212.

Regarding U20G C38A, the self-cleavage stood at 0.184.

As for A44G C46G, the self-cleavage was determined as 0.0715.

For A31U U53A, the self-cleavage is 0.026.

As to A43C U55G, the self-cleavage is 0.148.

For the variant U8C C18U, the self-cleavage is 0.779.

In the case of G40A G68U, the self-cleavage worked out at 0.156.

In the case of A23U A64G, the self-cleavage was found to be 0.474.

With U7C A26G, the self-cleavage stood at 0.667.

For the variant C16G A44G, the self-cleavage is 0.0556.

In the case of C3A C66A, the self-cleavage stood at 0.188.

For G27U U62A, the self-cleavage worked out at 0.137.

C3U G15C: the self-cleavage was 0.727.

C10U A61U: the self-cleavage turned out to be 0.246.

As to U2C G29U, the self-cleavage was found to be 0.0528.

With A49U A64U, the self-cleavage was determined as 0.0352.

As to U14C C48U, the self-cleavage is 0.117.

In the case of G25U A61G, the self-cleavage was found to be 0.178.

Take U7C G69U: the self-cleavage was 0.179.

Regarding G51A A59G, the self-cleavage was 0.25.

As for A45G C66G, the self-cleavage came to 0.122.

Turning to G56A A61G, the self-cleavage is 0.2.

On to G34A A64U, for which the self-cleavage amounted to 0.125.

As to C3G A44C, the self-cleavage is 0.153.

On to U5A A41U, for which the self-cleavage turned out to be 0.818.

On to A49U A61C, for which the self-cleavage was determined as 0.0823.

Consider C3G A43G, for which the self-cleavage was 0.0516.

In the case of G27C U63G, the self-cleavage came to 0.101.

As to C46A A64U, the self-cleavage was 0.255.

Regarding G17U G51A, the self-cleavage was 0.946.

In the case of G40U U67G, the self-cleavage stood at 0.151.

As for U60G A64G, the self-cleavage was 0.335.

Turning to G15U A61C, the self-cleavage turned out to be 0.261.

A22G A36G: the self-cleavage amounted to 0.757.

As to G17U A47G, the self-cleavage came to 0.15.

G57U A59G: the self-cleavage is 0.231.

In the case of C10A G15C, the self-cleavage worked out at 0.755.

For the variant G13A C38G, the self-cleavage was 0.0904.

Regarding C12G G51A, the self-cleavage was 0.965.

Turning to C3U G27C, the self-cleavage turned out to be 0.177.

In the case of U7A U8G, the self-cleavage was found to be 0.925.

On to C6U G57A, for which the self-cleavage worked out at 0.117.

For the variant U8C G54U, the self-cleavage was determined as 0.453.

Consider A31U A35C, for which the self-cleavage turned out to be 0.185.

As to A26C U33A, the self-cleavage came to 0.23.

Consider C46A A47C, for which the self-cleavage amounted to 0.0767.

Turning to U8C A39C, the self-cleavage stood at 0.343.

With C6G C12A, the self-cleavage amounted to 0.572.

Consider C66G U67C, for which the self-cleavage worked out at 0.219.

As for U7G U53C, the self-cleavage turned out to be 0.84.

As to C4G A45U, the self-cleavage was 0.112.

As for A22U G54A, the self-cleavage was 0.335.

For G32A G69C, the self-cleavage stood at 0.163.

As for C48U C65A, the self-cleavage was found to be 0.086.

On to G15A C66U, for which the self-cleavage is 0.35.

Consider G13A A71G, for which the self-cleavage came to 0.912.

Turning to A39G G42C, the self-cleavage is 0.129.

As for G25A G54C, the self-cleavage was determined as 0.219.

Regarding A22G A24G, the self-cleavage was 0.808.

On to A26G A30G, for which the self-cleavage was determined as 0.0496.

For the variant A47G U55A, the self-cleavage came to 0.184.

For the variant C16U C48A, the self-cleavage is 0.114.

Take C38U C46G: the self-cleavage worked out at 0.123.

As for A23U A30U, the self-cleavage was found to be 0.0692.

Regarding C18G A43C, the self-cleavage came out at 0.122.

As to A41C U52G, the self-cleavage stood at 0.654.

For the variant A26G A36G, the self-cleavage stood at 0.769.

Turning to G25U A36G, the self-cleavage stood at 0.639.

As to C3U C50U, the self-cleavage amounted to 0.187.

A24U U67A: the self-cleavage was 0.0716.

For C4G A31G, the self-cleavage was determined as 0.238.

As to G19A A61G, the self-cleavage is 0.158.

Regarding A30U G69A, the self-cleavage stood at 0.146.

Regarding U55G C66G, the self-cleavage came out at 0.251.

Turning to A35G C46A, the self-cleavage turned out to be 0.125.

As for A24C U67G, the self-cleavage worked out at 0.27.

As for A35C U62C, the self-cleavage came to 0.103.

For the variant U5G U8G, the self-cleavage is 0.262.

Turning to G34C C37G, the self-cleavage was 0.781.

For G13C G57U, the self-cleavage was found to be 0.164.

For the variant A45U U62A, the self-cleavage was found to be 0.149.

For the variant C4U C6U, the self-cleavage is 0.192.

For the variant A24G G54A, the self-cleavage was 0.387.

For the variant G1C U63C, the self-cleavage came out at 0.285.

With U9C, the self-cleavage turned out to be 0.819.

On to A30C U52A, for which the self-cleavage was determined as 0.214.

As for A23U C65G, the self-cleavage was found to be 0.159.

For the variant U7C A30G, the self-cleavage was 0.0858.

Turning to G17A A41U, the self-cleavage amounted to 1.38.

For A36U G42A, the self-cleavage was found to be 0.115.

Regarding C4U U5A, the self-cleavage turned out to be 0.0527.

As for A41U U70G, the self-cleavage worked out at 1.1.

On to U52G U62A, for which the self-cleavage amounted to 0.187.

Take C16U G51C: the self-cleavage came out at 1.08.

As to C16G U60G, the self-cleavage amounted to 0.511.

For A31C A47G, the self-cleavage came out at 0.108.

As to C37G C38G, the self-cleavage came to 0.0384.

Regarding A36C A41C, the self-cleavage is 0.401.

In the case of U8C A49C, the self-cleavage worked out at 0.216.

For the variant A59G U62A, the self-cleavage turned out to be 0.144.

In the case of A22C U60G, the self-cleavage worked out at 0.484.

For the variant A47G U58C, the self-cleavage turned out to be 0.17.

With A35U U62C, the self-cleavage was found to be 0.0853.

Regarding G17U A39U, the self-cleavage is 0.337.

As to G34A U55C, the self-cleavage came to 0.487.

Consider G32A A47C, for which the self-cleavage amounted to 0.143.

C16G G42U: the self-cleavage is 0.247.

For the variant G69C A71U, the self-cleavage is 0.57.

Take C6G U55G: the self-cleavage came out at 0.167.

For the variant C46U U52C, the self-cleavage turned out to be 0.215.

For A23G U63C, the self-cleavage amounted to 0.148.

In the case of C3G A11U, the self-cleavage worked out at 0.28.

As to G17A G56A, the self-cleavage is 0.142.

In the case of U2A U5A, the self-cleavage amounted to 0.137.

On to A41G A44U, for which the self-cleavage was 0.185.

Take C38A A45G: the self-cleavage came to 0.104.

Take U2C A59U: the self-cleavage worked out at 0.108.

As for G13U U70A, the self-cleavage came to 0.771.

In the case of U20A A31U, the self-cleavage stood at 0.148.

Turning to C10U U55G, the self-cleavage was found to be 0.201.

On to U8C U55C, for which the self-cleavage stood at 0.132.

On to G19U U58C, for which the self-cleavage was determined as 0.994.

For U20G C37G, the self-cleavage was found to be 0.395.

Regarding C6U G56A, the self-cleavage worked out at 0.193.

The values above are taken from the RNAGym collection of RNA variant scans (doi:10.7554/elife.80360).
